Results on 38 variants are retold here after the RNAGym collection of RNA variant scans (doi:10.7554/elife.80360).

The labels stand for the following.
B1: Hairpin Ribozyme (parent)
chain: GUCCUCUUUCACGUGCGCGUGAAAGAGAGAAGUGAACCAGAGAAACACACGUUGUGGUAUAUUACCUGGUA

Variants of B1 are the subject of the series. The series is described as follows: self-cleavage, relative activity (ratio to wild type); higher = more cleavage; co-transcriptional.
For GUCCGCUUUCACGUGCGCGUGAAAGAGAGAAGUGAACCAGAGAAACACACGUUGUAGUAUAUUACCUGGUA, the self-cleavage worked out at 0.0193.

Consider GUCCUAUUUCACGUGCGCGUGAAAGGGAGAAGUGAACCAGAGAAACACACGUUGUGGUAUAUUACCUGGUA, for which the self-cleavage turned out to be 0.281.

Take GUCCUAUUUCACGUGCGCGUGAAAGUGAGAAGUGAACCAGAGAAACACACGUUGUGGUAUAUUACCUGGUA: the self-cleavage was 0.364.

For the variant GUCCGCUUUCACGUGCGCGAGAAAGAGAGAAGUGAACCAGAGAAACACACGUUGUGGUAUAUUACCUGGUA, the self-cleavage is 0.279.

Regarding GUCCGCUUUCACGUGCGCGGGAAAGAGAGAAGUGAACCAGAGAAACACACGUUGUGGUAUAUUACCUGGUA, the self-cleavage stood at 0.238.

Regarding GUCCGCUUUCACGUGCGCGUGAAAGAGAGAAGUGAACCAGAGAAACACACGUUUUGGUAUAUUACCUGGUA, the self-cleavage turned out to be 0.228.

Regarding GUCCGCUUUCACGUGCGCGUGAAAGAGAGAAGUGAACCAGAGAAACACACGUUGUGGUAUACUACCUGGUA, the self-cleavage amounted to 0.129.

Regarding GUCCGCUUUCACGUGCGCGUGAAAGAGAGAAGUGAACCAGAGAAACACACGUUGUGGUAUAAUACCUGGUA, the self-cleavage turned out to be 0.124.

As for GUCCGCUUACACGUGCGCGUGAAAGAGAGAAGUGAACCAGAGAAACACACGUUGUGGUAUAUUACCUGGUA, the self-cleavage worked out at 0.346.

As to GUCCGCUUGCACGUGCGCGUGAAAGAGAGAAGUGAACCAGAGAAACACACGUUGUGGUAUAUUACCUGGUA, the self-cleavage was 0.147.

GUCCGCUUUCACAUGCGCGUGAAAGAGAGAAGUGAACCAGAGAAACACACGUUGUGGUAUAUUACCUGGUA: the self-cleavage came to 0.245.

Take GUCCUAUUUCACGUGCGCGUGAAUGAGAGAAGUGAACCAGAGAAACACACGUUGUGGUAUAUUACCUGGUA: the self-cleavage came out at 0.487.

As to GUCCGCUUUCACGUGCGCGUGAAAGAGAGAAGUGAAACAGAGAAACACACGUUGUGGUAUAUUACCUGGUA, the self-cleavage was found to be 0.23.

Consider GUCCGCUUUCACGUGCGCGUGAAAGAGAGAAGUGAAUCAGAGAAACACACGUUGUGGUAUAUUACCUGGUA, for which the self-cleavage is 0.516.

Consider GUCCGCUUUCACGUGCGCGUGAAAGAGACAAGUGAACCAGAGAAACACACGUUGUGGUAUAUUACCUGGUA, for which the self-cleavage was 0.0639.

On to GUCCGCUUUCACGUGCGCGUGAAAGAGAGAAGUGAACCAGAGAAACACACGUUGUGGUAUAUUACCUGGUG, for which the self-cleavage amounted to 0.207.

On to GUCCGCUUUCACGUGCGCGUGAAAGAGAGAAGUGAACCAGAAAAACACACGUUGUGGUAUAUUACCUGGUA, for which the self-cleavage came to 0.0213.

Regarding GUCCGCUUUCACGUGCGCGUGAAAGAGAGAAGUGAACCAGAGAAACACACGUUGUGGUAUAUUAUCUGGUA, the self-cleavage came to 0.218.

In the case of GUCCGCUUUCACGUGCGCGUGAAAGAGAGAAGUGAACCAGAGAAACACACGUUGUGGUAUAUUAACUGGUA, the self-cleavage amounted to 0.268.

For the variant GUCCGCUUUCACGUGCGCGUGAAAGAGAGAAGUGAACCAGAGAAACACAAGUUGUGGUAUAUUACCUGGUA, the self-cleavage worked out at 0.184.

GUCCGCUUUCACGUGCGCGUGAAAGAGAGAAGUGAACCAGAGAAACACAGGUUGUGGUAUAUUACCUGGUA: the self-cleavage was found to be 0.165.

As to GUCCUAUUUCACGUGCGCGUGGAAGAGAGAAGUGAACCAGAGAAACACACGUUGUGGUAUAUUACCUGGUA, the self-cleavage was 0.453.

In the case of GUCCUAUUUCACGUGCGCGUGAGAGAGAGAAGUGAACCAGAGAAACACACGUUGUGGUAUAUUACCUGGUA, the self-cleavage came to 0.387.

GUCCGCUUUCACGUGCGCGUGAAAGAGAGAAGAGAACCAGAGAAACACACGUUGUGGUAUAUUACCUGGUA: the self-cleavage was 0.17.

With GUCCGCUUUCACGUGCGCGUGAAAGAGAGAAGCGAACCAGAGAAACACACGUUGUGGUAUAUUACCUGGUA, the self-cleavage came to 0.0793.

As for GUCCGCUUUCACGUGCGCGUGAAAGAGAGAAGUGAACCAGAGAAACACACGCUGUGGUAUAUUACCUGGUA, the self-cleavage is 0.596.

Take GUCCGCUUUCACGUGCGCGUGAAAGAGAGAAGUGAACCAGAGAAACUCACGUUGUGGUAUAUUACCUGGUA: the self-cleavage came out at 0.0832.

With GUCCUAUUUCACGUGCGCGUGAAAGAGAGAAGUGAACCAGAGUAACACACGUUGUGGUAUAUUACCUGGUA, the self-cleavage stood at 0.131.

Take GUCCGCUUUCACGUGCGCGUGAAAGAGAGAAGUAAACCAGAGAAACACACGUUGUGGUAUAUUACCUGGUA: the self-cleavage was found to be 0.603.

On to GUCCGCUUUCACGUGCGCGUGAAAGAGAGAAGUCAACCAGAGAAACACACGUUGUGGUAUAUUACCUGGUA, for which the self-cleavage was 0.886.

With GUCCUAUUUCACGUGCGCGUGAAAGAGAGAAGUGAACCAGAGAAACACACGUUGUGGUAUAUUACCUGGUA, the self-cleavage was determined as 0.586.

For GUCCGCUUUCACGUGCGCGUGAAAGAGAGAAGUGAACCAGAGAAACACACGUUGUGGUAUAUUACCUGGGA, the self-cleavage was found to be 0.354.

GUCCGCUUUCACGUGCGCGUGAAAGAGAGAAGUGAACCAGAGAAACACACGUUGUGGUAGAUUACCUGGUA: the self-cleavage stood at 0.353.

As to GUCCUAUUUCACGUGCGCGUGAAAGAGAGAAGUGAACCAGGGAAACACACGUUGUGGUAUAUUACCUGGUA, the self-cleavage was 0.439.

As to GUCCUAUUUCACGUGCGCGUGAAAGAGAGAAGUGAACCAGAGAACCACACGUUGUGGUAUAUUACCUGGUA, the self-cleavage was found to be 0.12.

GUCCGCCUUCACGUGCGCGUGAAAGAGAGAAGUGAACCAGAGAAACACACGUUGUGGUAUAUUACCUGGUA: the self-cleavage amounted to 0.143.

In the case of GUCCGCGUUCACGUGCGCGUGAAAGAGAGAAGUGAACCAGAGAAACACACGUUGUGGUAUAUUACCUGGUA, the self-cleavage was found to be 0.171.

GUCCUAUUUCACGUGCGCGUGAAAGAGAGGAGUGAACCAGAGAAACACACGUUGUGGUAUAUUACCUGGUA: the self-cleavage turned out to be 0.131.
